Data on five molecules can be found in US20260374838 (published 2026).

Where a chain is given by its changes, count along the chain named. Names and notes keep the numbering of the source. Read-outs that look alike come from different tables or passages of the source.

Experiment [1] concerns the target T1, murine CD200R1 (mouse, UniProt Q9ES57).
T1 chain: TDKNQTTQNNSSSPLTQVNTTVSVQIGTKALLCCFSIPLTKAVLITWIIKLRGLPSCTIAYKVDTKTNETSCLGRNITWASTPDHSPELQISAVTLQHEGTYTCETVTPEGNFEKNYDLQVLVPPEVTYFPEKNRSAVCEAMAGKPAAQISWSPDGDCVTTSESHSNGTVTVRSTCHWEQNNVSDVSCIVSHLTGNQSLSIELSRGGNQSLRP
Description: SPR, 25C.

Experiment [2] concerns the target T2, human CD200R (human, UniProt Q8TD46).
T2 chain: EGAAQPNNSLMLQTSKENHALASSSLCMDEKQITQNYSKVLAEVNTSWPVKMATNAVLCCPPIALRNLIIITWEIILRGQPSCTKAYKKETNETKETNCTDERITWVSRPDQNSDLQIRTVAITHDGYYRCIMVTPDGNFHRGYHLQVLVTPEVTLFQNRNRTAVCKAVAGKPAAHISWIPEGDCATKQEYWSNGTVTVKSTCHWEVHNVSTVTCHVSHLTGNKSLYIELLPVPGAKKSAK
The experiment in a line: SPR, 25C.

The next experiment has as its target T3, human CD200R1L (human, UniProt Q6Q8B3).
T3 chain: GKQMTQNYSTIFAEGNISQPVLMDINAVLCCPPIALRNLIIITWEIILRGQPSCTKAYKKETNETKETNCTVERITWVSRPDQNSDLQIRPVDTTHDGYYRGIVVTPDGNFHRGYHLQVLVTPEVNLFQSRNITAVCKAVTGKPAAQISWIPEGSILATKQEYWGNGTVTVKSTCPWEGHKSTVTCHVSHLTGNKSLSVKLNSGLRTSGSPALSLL
Description: SPR, 25C.

The target of experiment [3] is T2, human CD200R. Description: SPR, 25C.
Experiment [4] has as its target T1, murine CD200R1. Description: SPR.

B1: DS-118 (antibody)
chain: QVQVVTQDEREQLYTPASLKCSLQNAQEALIVTWQKKKAVSPENMVTFSENHGVVIQPAYKDKINITQLGLQNSTITFWNITLEDEGCYMCLFNTFGFGYYSGTACLTVYVQPIVSLHYKFSEDHLNITCSATARPAPMVFWKVPRSGIENSTVTLSHPNGTTSVTSILHIKDPKNQVGKEVICQVLHLGTVTDFKQTVNKGPPCPPCPAPEFLGGPSVFLFPPKPKDTLMISRTPEVTCVVVDVSQEDPEVQFNWYVDGVEVHNAKTKPREEQFNSTYRVVSVLTVLHQDWLNGKEYKCKVSNKGLPSSIEKTISKAKGQPREPQVYTLPPSQEEMTKNQVSLTCLVKGFYPSDIAVEWESNGQPENNYKTTPPVLDSDGSFFLYSRLTVDKSRWQEGNVFSCSVMHEALHNHYTQKSLSLSLGK
With B1, the binding result with murine CD200R1 [1] and in the experiment with human CD200R1L was “no binding” each time. In addition, the Kd with human CD200R [2] and in the experiment with human CD200R [3] was 1.3 nM throughout.

B2: DS-20 (antibody)
chain: QVQVVTQDEREQLYTPASLKCSLQNAQEALIVTWQKKKAVSPENMVTFSENHGVVIQPAYKDKINITQLGLQNSTITFWNITLEDEGCYMCLFNTFGFGKISGTACLTVYVQPIVSLHYKFSEDHLNITCSATARPAPMVFWKVPRSGIENSTVTLSHPNGTTSVTSILHIKDPKNQVGKEVICQVLHLGTVTDFKQTVNKG
modifications: wild-type CD200 ectodomain fused to human IgG1 Fc (dimer); UniProt numbering
With B2, the binding result with murine CD200R1 [1] and with human CD200R1L was “no binding” throughout. The same molecule yielded a Kd in the experiment with human CD200R [2] of 111 nM.

B3: DS-155 (antibody)
chain: B2 chain
modifications: wild-type CD200 ectodomain fused to human IgG4 S228P Fc (dimer); UniProt numbering
On to B3, for which the binding result with murine CD200R1 [1] and in the experiment with human CD200R1L was “no binding” each time. Further, the Kd with human CD200R [2] and in the experiment with human CD200R [3] was 179 nM in each case.

B4: DS-227 (protein)
chain: QVEVVTQDERKALHTTASLRCSLKTSQEPLIVTWQKKKAVSPENMVTYSKTYGVVIQPAYKDRINVTELGLWNSSITFWNTTLEDEGCYMCLFNIFGSQKVSGTACLTLYVQPIVHLHYNYFEDHLNITCSATARPAPAISWKGTGTGIENSTESHFHSNGTTSVTSILRVKDPKTQVGKEVICQVLYLGNVIDYKQSLDKG
B4 registered a Kd with murine CD200R1 [4] of 43.3 nM.

B5: DS-198 (protein)
chain: B4 chain with Y52H, I95T
modifications: wild-type murine CD200 fused to murine IgG2a Fc
With B5, binding with murine CD200R1 [4] was characterised by a dissociation constant (Kd) of 584 nM. This Kd is about 13-fold higher than that of the molecule before.
